Measured values: US20120316071A1 (published 2012)

Assays:
[1] = molecular target: T1, Recombinant Human DLL4 (R&D Systems Cat#1506-D4/CF) (human, UniProt Q9NR61 27-524); experiment: ELISA, DLL4 coated on plate, Fab at 6.67 nM
T1 construct: Bought recombinant protein; also called delta-like protein 4; Delta-like 4

[2] = molecular target: T1, Recombinant Human DLL4 (R&D Systems …); experiment: ELISA, DLL4 coated on plate, Fab at 0.74 nM
[3] = molecular target: T1, Recombinant Human DLL4 (R&D Systems …); experiment: ELISA, DLL4 coated on plate, Fab at 20 nM
[4] = molecular target: T1, Recombinant Human DLL4 (R&D Systems …); experiment: ELISA, DLL4 coated on plate, Fab at 2.22 nM
[5] = molecular target: T2, Recombinant Human DLL4 (delta-like protein 4) (human, UniProt Q9NR61 27-524); experiment: ECL (MSD) multispot binding assay, Fab on immobilised recombinant human DLL4
T2 construct: also called rHuman DLL4; Delta-like 4

B1: Fab VH5-51_IGHD5-18*01>3_IGHJ4*01 G100K/G104T S28R (H:KT S28R) & V3-4_IGLJ1*01 (Fab, V domains shown)
VH: EVQLVQSGAEVKKPGESLKISCKGSGYRFTSYWIGWVRQMPGKGLEWMGIIYPGDSDTRYSPSFQGQVTISADKSISTAYLQWSSLKASDTAMYYCARRKYSYTYDYFDYWGQGTLVTVSS
VL: QTVVTQEPSFSVSPGGTVTLTCGLSSGSVSTSYYPSWYQQTPGQAPRTLIYSTNTRSSGVPDRFSGSILGNKAALTITGAQADDESDYYCVLYMGSGISYVFGTGTKVTVL
notes: Fab expressed in E. coli; Plasmid A adds CH1 with His6 and Flag tags to the heavy chain; Plasmid E adds lambda CL to the light chain; also called H:KT S28R & L:wt; G100K/G104T S28R & parent
B1 showed an ELISA signal [1] of 0.003, an ELISA signal [2] of 0 and an ELISA signal [3] of 0.009. It also gave an ELISA signal [4] of 0.

B2: Fab VH5-51_IGHD5-18*01>3_IGHJ4*01 G100K/G104T (H:KT) & V3-4_IGLJ1*01 (wildtype light chain) (Fab, V domains shown)
VH: EVQLVQSGAEVKKPGESLKISCKGSGYSFTSYWIGWVRQMPGKGLEWMGIIYPGDSDTRYSPSFQGQVTISADKSISTAYLQWSSLKASDTAMYYCARRKYSYTYDYFDYWGQGTLVTVSS
VL: QTVVTQEPSFSVSPGGTVTLTCGLSSGSVSTSYYPSWYQQTPGQAPRTLIYSTNTRSSGVPDRFSGSILGNKAALTITGAQADDESDYYCVLYMGSGISYVFGTGTKVTVL
notes: Fab made in E. coli; VH was cloned into Plasmid A (CH1, His6 and Flag tags) and lambda VL into Plasmid E (lambda CL); also called H:KT & L:wt; KT double mutant
With B2 the “ECL signal” value [5] was 9360.

B3: Fab VH5-51_IGHD5-18*01>3_IGHJ4*01 G100K/G104T (H:KT) & V3-4_IGLJ1*01 N54A (Fab, V domains shown)
VH: EVQLVQSGAEVKKPGESLKISCKGSGYSFTSYWIGWVRQMPGKGLEWMGIIYPGDSDTRYSPSFQGQVTISADKSISTAYLQWSSLKASDTAMYYCARRKYSYTYDYFDYWGQGTLVTVSS
VL: QTVVTQEPSFSVSPGGTVTLTCGLSSGSVSTSYYPSWYQQTPGQAPRTLIYSTATRSSGVPDRFSGSILGNKAALTITGAQADDESDYYCVLYMGSGISYVFGTGTKVTVL
notes: Fab (CH1 with His6/Flag tags from Plasmid A, lambda CL from Plasmid E); also called G100K/G104T & N54A
With B3 the “ECL signal” value [5] was 12900.

B4: Fab VH5-51_IGHD5-18*01>3_IGHJ4*01 G100K/G104T (H:KT) & V3-4_IGLJ1*01 S52A (Fab, V domains shown)
VH: EVQLVQSGAEVKKPGESLKISCKGSGYSFTSYWIGWVRQMPGKGLEWMGIIYPGDSDTRYSPSFQGQVTISADKSISTAYLQWSSLKASDTAMYYCARRKYSYTYDYFDYWGQGTLVTVSS
VL: QTVVTQEPSFSVSPGGTVTLTCGLSSGSVSTSYYPSWYQQTPGQAPRTLIYATNTRSSGVPDRFSGSILGNKAALTITGAQADDESDYYCVLYMGSGISYVFGTGTKVTVL
notes: Fab (CH1 with His6/Flag tags from Plasmid A, lambda CL from Plasmid E); also called G100K/G104T & S52A
With B4 the “ECL signal” value [5] was 15200.

B5: Fab VH5-51_IGHD5-18*01>3_IGHJ4*01 G100K/G104T (H:KT) & V3-4_IGLJ1*01 S57A (Fab, V domains shown)
VH: EVQLVQSGAEVKKPGESLKISCKGSGYSFTSYWIGWVRQMPGKGLEWMGIIYPGDSDTRYSPSFQGQVTISADKSISTAYLQWSSLKASDTAMYYCARRKYSYTYDYFDYWGQGTLVTVSS
VL: QTVVTQEPSFSVSPGGTVTLTCGLSSGSVSTSYYPSWYQQTPGQAPRTLIYSTNTRASGVPDRFSGSILGNKAALTITGAQADDESDYYCVLYMGSGISYVFGTGTKVTVL
notes: Fab (CH1 with His6/Flag tags from Plasmid A, lambda CL from Plasmid E); also called G100K/G104T & S57A
In the case of B5, the “ECL signal” value [5] is reported as 12600.

B6: Fab VH5-51_IGHD5-18*01>3_IGHJ4*01 G100K/G104T (H:KT) & V3-4_IGLJ1*01 S58A (Fab, V domains shown)
VH: EVQLVQSGAEVKKPGESLKISCKGSGYSFTSYWIGWVRQMPGKGLEWMGIIYPGDSDTRYSPSFQGQVTISADKSISTAYLQWSSLKASDTAMYYCARRKYSYTYDYFDYWGQGTLVTVSS
VL: QTVVTQEPSFSVSPGGTVTLTCGLSSGSVSTSYYPSWYQQTPGQAPRTLIYSTNTRSAGVPDRFSGSILGNKAALTITGAQADDESDYYCVLYMGSGISYVFGTGTKVTVL
notes: Fab (CH1 with His6/Flag tags from Plasmid A, lambda CL from Plasmid E); also called G100K/G104T & S58A
B6 was tested, and the “ECL signal” value [5] was 12600.

B7: Fab VH5-51_IGHD5-18*01>3_IGHJ4*01 G100K/G104T (H:KT) & V3-4_IGLJ1*01 T53A (Fab, V domains shown)
VH: EVQLVQSGAEVKKPGESLKISCKGSGYSFTSYWIGWVRQMPGKGLEWMGIIYPGDSDTRYSPSFQGQVTISADKSISTAYLQWSSLKASDTAMYYCARRKYSYTYDYFDYWGQGTLVTVSS
VL: QTVVTQEPSFSVSPGGTVTLTCGLSSGSVSTSYYPSWYQQTPGQAPRTLIYSANTRSSGVPDRFSGSILGNKAALTITGAQADDESDYYCVLYMGSGISYVFGTGTKVTVL
notes: Fab (CH1 with His6/Flag tags from Plasmid A, lambda CL from Plasmid E); also called G100K/G104T & T53A
With B7 the “ECL signal” value [5] was 13200.

B8: Fab VH5-51_IGHD5-18*01>3_IGHJ4*01 G100K/G104T (H:KT) & V3-4_IGLJ1*01 T55A (Fab, V domains shown)
VH: EVQLVQSGAEVKKPGESLKISCKGSGYSFTSYWIGWVRQMPGKGLEWMGIIYPGDSDTRYSPSFQGQVTISADKSISTAYLQWSSLKASDTAMYYCARRKYSYTYDYFDYWGQGTLVTVSS
VL: QTVVTQEPSFSVSPGGTVTLTCGLSSGSVSTSYYPSWYQQTPGQAPRTLIYSTNARSSGVPDRFSGSILGNKAALTITGAQADDESDYYCVLYMGSGISYVFGTGTKVTVL
notes: Fab (CH1 with His6/Flag tags from Plasmid A, lambda CL from Plasmid E); also called G100K/G104T & T55A
With B8 the “ECL signal” value [5] was 12700.
